No end group written: not given here.
B2: rat melanocortin-3 receptor (receptor)
chain: MNSSCCPSSSYPTLPNLSQHPAAPSASNRSGSGFCEQVFIKPEVFLALGIVSLMENILVILAVVRNGNLHSPMYFFLLSLLQADLLVSLSNSLETIMIVVINSDSLTLEDQFIQHMDNIFDSMICISLVASICNLLAIAVDRYVTIFYALRYHSIMTVRKALSLIVAIWVCCGICGVMFIVYSESKMVIVCLITMFFAMVLLMGTLYIHMFLFARLHVQRIAALPPADGLAPQQHSCMKGAVTITILLGVFIFCWAPFFLHLVLIITCPTNPYCICYTAHFNTYLVLIMCNSVIDPLIYAFRSLELRNTFKEILCGCNGMNVG
notes: Stably expressed in human 293 cells from pcDNA/neo I; also called rat MC-3 receptor; rat MC3-R

Legend:
[1] = target: T1, mouse αMSH (MC-1) receptor (mouse) (UniProt Q01727); test: cell-based or functional assay
T1 sequence: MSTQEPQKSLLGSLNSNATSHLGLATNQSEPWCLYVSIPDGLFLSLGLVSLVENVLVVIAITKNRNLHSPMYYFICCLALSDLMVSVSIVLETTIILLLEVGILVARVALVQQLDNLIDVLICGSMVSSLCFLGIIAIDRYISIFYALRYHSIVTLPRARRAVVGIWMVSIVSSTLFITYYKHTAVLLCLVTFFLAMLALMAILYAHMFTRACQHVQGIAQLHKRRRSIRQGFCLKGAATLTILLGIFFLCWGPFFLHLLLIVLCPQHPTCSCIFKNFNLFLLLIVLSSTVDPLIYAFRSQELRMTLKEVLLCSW

[2] = target: T2, human melanocortin 4 receptor (human, UniProt P32245 1-332); test: cell-based or functional assay
T2 chain: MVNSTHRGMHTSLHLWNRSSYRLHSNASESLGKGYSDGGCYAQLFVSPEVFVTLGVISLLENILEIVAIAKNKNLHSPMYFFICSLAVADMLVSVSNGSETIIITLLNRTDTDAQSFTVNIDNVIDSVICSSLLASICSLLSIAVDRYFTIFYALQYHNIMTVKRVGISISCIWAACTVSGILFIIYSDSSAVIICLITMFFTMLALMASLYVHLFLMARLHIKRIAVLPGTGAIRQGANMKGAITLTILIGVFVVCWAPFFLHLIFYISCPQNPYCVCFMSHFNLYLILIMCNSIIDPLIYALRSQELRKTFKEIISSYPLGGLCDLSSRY

[3] = target: human MC-3 receptor (human) (UniProt P41968); test: cell-based or functional assay
Sequence of human MC-3 receptor (human) (P41968 whole entry): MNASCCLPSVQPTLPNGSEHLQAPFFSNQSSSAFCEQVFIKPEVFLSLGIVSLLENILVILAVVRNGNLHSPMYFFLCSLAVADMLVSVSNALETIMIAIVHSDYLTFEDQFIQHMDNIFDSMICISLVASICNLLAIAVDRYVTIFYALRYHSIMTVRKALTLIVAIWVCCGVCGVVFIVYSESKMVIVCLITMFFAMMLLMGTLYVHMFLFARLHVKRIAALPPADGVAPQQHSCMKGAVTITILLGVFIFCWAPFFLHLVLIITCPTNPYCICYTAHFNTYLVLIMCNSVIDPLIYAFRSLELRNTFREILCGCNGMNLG

[4] = target: B2; test: cell-based or functional assay
[5] = target: mouse MC-5 melanocortin receptor (mouse) (UniProt P41149); test: cell-based or functional assay
Sequence of mouse MC-5 melanocortin receptor (mouse) (P41149 whole entry): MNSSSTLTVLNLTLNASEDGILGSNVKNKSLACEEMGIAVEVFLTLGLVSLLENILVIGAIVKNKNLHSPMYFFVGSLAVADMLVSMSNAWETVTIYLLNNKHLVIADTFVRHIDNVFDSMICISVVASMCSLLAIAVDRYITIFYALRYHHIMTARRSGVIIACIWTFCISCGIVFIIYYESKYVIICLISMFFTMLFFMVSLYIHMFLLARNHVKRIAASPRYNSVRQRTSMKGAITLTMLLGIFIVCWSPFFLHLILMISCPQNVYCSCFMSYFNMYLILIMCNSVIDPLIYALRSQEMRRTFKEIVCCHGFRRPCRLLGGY

[6] = target: B2; test: competition with 125I-NDP-MSH on suspended 293 cells expressing rat MC-3 receptor
murine agouti peptide = target: T3, murine agouti peptide (mouse, UniProt Q03288 23-131, limits assumed); test: competition with 125I-[Nle^4, D-Phe^7]α-MSH on 293 cells expressing rat MC-3 receptor; results not shown
T3 construct: Preparation was not homogeneous; also called endogenous mouse agouti peptide
T3 sequence (looked up): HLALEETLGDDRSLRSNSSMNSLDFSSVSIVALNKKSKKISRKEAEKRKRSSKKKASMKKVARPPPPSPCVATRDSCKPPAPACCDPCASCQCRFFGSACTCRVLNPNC

For “Nle^4, D-Phe^7-αMSH (from UniProt P01189 138-150) (peptide)”, the EC50, intracellular cAMP [1] was 0.028 nM and the Ec50, adenylate cyclase activity [2] was 11 pM.

With “SHU9119, Ac-Nle^4-cyclo(Asp^5, D-Nal(2)^7, Lys^10) αMSH-(4-10)-amide (from UniProt P01189 141-147) (peptide)” the pA2 (method of Schild) [3] was 8.3.

In the case of “desacetyl-αMSH (from UniProt P01189 138-150) (peptide)”, the Ec50, intracellular cAMP [4] is reported as 8 nM.

For “γ2-MSH (from UniProt P01189 77-88) (peptide)”, the Ec50, intracellular cAMP [4] was 3 nM.

For “βMSH (from UniProt P01189 217-234) (peptide)”, the EC50, adenylate cyclase / cAMP-dependent β-galactosidase [5] was 5 nM.

For YVMGHFRWDRFGRRNSSSSGSSGAGQ (peptide, UniProt P01189 77-102, looked up, ends and bridges not checked) [γ3-MSH], the Ec50, intracellular cAMP [4] was 6 nM.

Molecule SYSMEHFRWGKPVGKKRRPVKVYPNGAEDESAEAFPLEF (peptide, UniProt P01189 138-176, looked up) [adrenocorticotropic hormone] has an EC50, intracellular cAMP [1] of 8 nM, an Ec50, intracellular cAMP [4] of 4 nM and an Ec50, adenylate cyclase activity [2] of 680 pM.

In the case of SYSMEHFRWGKPV (peptide, UniProt P01189 138-150, looked up, ends and bridges not checked, domain: αMSH; also called αMSH; α-MSH) [α-melanocyte stimulating hormone], the “Ec50, intracellular cAMP” value [4] is reported as 4 nM and the Ki [6] is reported as ~100 nM.

B1: γ-melanocyte stimulating hormone (peptide, UniProt P01189 77-88, looked up)
peptide: YVMGHFRWDRFG
notes: domain: γMSH; Printed without an index; also called γMSH; γ-MSH
In the case of B1, the Ki [6] is reported as ~50 nM.

MEHFRWG (peptide, UniProt P01189 141-147, looked up, domain: ACTH4-10) [ACTH4-10] was tested, and the “Ec50, intracellular cAMP” value [4] was 100 nM and the “Ec50, adenylate cyclase activity” value [2] was > 100000 pM.

B2: binds (murine agouti peptide).

In the case of YVMGHFRWDRF (peptide, UniProt P01189 77-87, looked up, ends and bridges not checked) [γ1-MSH], the Ec50, intracellular cAMP [4] is reported as 3 nM.

From patent US20030105024A1 (STATE OF OREGON, published 2003)
